Results reported in US20060166860A1, “Zinc transporter compositions for the treatment of cardiovascular diseases” (priority 2002, published 2006).
“Also recorded” adds a separate entry of the source.

Key:
intracellular zinc = test: Fura-2 fluorescence signal of intracellular zinc in HEK 293 cells; assay type: cell-based, human; conditions: HEK 293 cells exposed to zinc, then TPEN (FIG. 1, FIG. 3 inset)
Protocol: (§1) Cells were incubated for 30 minutes with 5 μM of the ratiometric dye Fura-2-AM (TEF Labs) in 0.1% BSA-sodium Ringer's solution. Fura-2-AM binds zinc with very high affinity. After incubation, the cells were washed in Ringer's solution and the cover glass mounted on a holder that allowed the perfusion of liquids into the cells. Signals resulting from Ca^+2 or Zn^+2 changes were distinguished by using the intracellular zinc chelator TPEN. Changes in intracellular cation concentration were monitored by a single cell imaging system, consisting of a Zeiss Axiovert 100, inverted microscope, Polychrome II monochromator (TILL Photonics) and a cooled CCD (PCO). The data was acquired and processed by Axon Imaging Workbench 2, Excel and KleidaGraph. Fura-2 was excited at 340 nm and 380 nm and the image obtained with a 510 nm long-pass filter. The data was analyzed post acquisition, by selecting single cells (30-50) from the field of view and recording their activity.
To measure the accumulation of intracellular zinc, HEK 293 cells were superfused with Ca-free, zinc-containing Ringer solution, and the […] of Fura-2 was evaluated. Fura-2 is a highly sensitive probe for changes in intracellular Zn^2+ concentration.

ZnT-1 = ZnT-1 expression in cultured brain astrocytes by Western Blot; assay type: cell-based; conditions: 20 and 50 μM Zn for 12 hours (FIG. 9)
Protocol: (§2) Western Blots were carried out in the classical method described in Molecular Cloning—A laboratory manual by Sambroock et al., Cold Spring Harbor Laboratory Press, 2nd edition, 1989.
In astrocytes, zinc influx is mainly mediated by the LTCC. Astrocytes were treated with sub-lethal amounts (20 and 50 μM) of Zn for 12 hours, and ZnT-1 expression evaluated by Western Blot (FIG. 9b).

LTCC [1] = test: Zinc influx in astrocytes pre-treated with zinc; assay type: cell-based; conditions: astrocytes pre-treated with 20, 50 or 100 μM zinc for 24 or 48 hours (FIG. 10)
Protocol: Cells were superfused with a Ringer's solution containing: 120 mM NaCl, 5 mM KCl, 20 mM glucose, 10 mM Hepes, 0.5 mM MgCl, 1.8 mM CaCl2 at pH 7.4. For depolarization experiments aimed to fully activate the LTCC, 45 mM NaCl were replaced with 45 mM KCl. ZnSO4 was added at the indicated concentration to this solution.
as §1, with “Fura-2 was excited at 340 nm and 380 nm and the image obtained with a 510 nm long-pass filter.” left out
Astrocytes were pre-treated with 20, 50 or 100 μM of zinc for 24 or 48 hours, and subsequent rates of zinc influx were determined. […]

LTCC [2] = test: Immunoprecipitation with ZnT-1 antibody and Western blot with LTCC antibody, HEK 293 cells; assay type: binding, human; conditions: HEK 293 cells co-transfected with LTCC and ZnT-1 (FIG. 11)
Protocol: as §2
(§3) Immunopercipitation using ZnT-1 antibody followed by Western blot with LTCC antibody was performed.

L-type Ca channel (LTCC) = test: Zinc influx into HEK 293 cells, Fura-2 fluorescence; assay type: cell-based, human; conditions: control vs ZnT-1 transfected HEK 293 cells, 400 μM zinc (FIG. 4a)
Protocol: (§4) PC12 and human embryonic kidney (HEK) 293 cells were grown in DMEM medium (Sigma) as described [Montrose Rafizadeh, C. et al. (1997) J. Cell Physiol. 170:299-308], and seeded on cover slides for 1-2 days prior to measurements.
(§5) HEK 293 cells were transiently transfected with 3 μg of plasmid containing ZnT-1 (kindly provided by Dr. R. D. Palmiter, Howard Hughes Medical Institute, University of Washington, Seattle, Wash.) or vector alone, using the calcium precipitation method as described [Sekler, I. et al. (1995) J Biol. Chem. 270:11251-6]. Pherochromocytoma PC12 cells were co-transfected with ZnT-1 or EYFP (Clontech) for control, using the Fugene-6 reagent (Roche). Measurements were performed 36-48 hours following transfection. […]
(§6) Cells were incubated for 30 minutes with 5 μM of the ratiometric dye Fura-2-AM (TEF Labs) in 0.1% BSA-sodium Ringer's solution. […] Changes in intracellular cation concentration were monitored by a single cell imaging system, consisting of a Zeiss Axiovert 100, inverted microscope, Polychrome II monochromator (TILL Photonics) and a cooled CCD (PCO). […] The data was analyzed post acquisition, by selecting single cells (30-50) from the field of view and recording their activity. […]
Control and ZnT-1 transfected HEK 293 cells were exposed to 400 μM zinc, and the rate of zinc influx was monitored over time (FIG. 4a-b).

LTCC [3] = test: Zinc influx into HEK 293 cells transfected with LTCC alone or with ZnT-1; assay type: cell-based, human
Protocol: as §4, §5
Cells were incubated for 30 minutes with 5 μM of the ratiometric dye Fura-2-AM (TEF Labs) in 0.1% BSA-sodium Ringer's solution. […] Changes in intracellular cation concentration were monitored by a single cell imaging system, consisting of a Zeiss Axiovert 100, inverted microscope, Polychrome II monochromator (TILL Photonics) and a cooled CCD (PCO). […] The data was analyzed post acquisition, by selecting single cells (30-50) from the field of view and recording their activity.
Rates of zinc influx into HEK293 cells transfected with LTCC only or co-transfected with LTCC and ZnT-1 were measured. […]

LTCC [4] = test: LTCC expression by immunoblot, HEK 293 cells transfected with LTCC; assay type: cell-based, human; conditions: presence or absence of ZnT-1 (FIG. 7)
Protocol: as §2
(§7) Thus, ZnT-1 putative regulation of LTCC is likely to be at the functional level, and not at the expression level.

L-type Ca channels = test: Ca influx into depolarized PC12 cells expressing endogenous L-type Ca channels; assay type: cell-based; conditions: ZnT-1 transfected vs control PC12 cells, 1.8 mM calcium, high K+ (FIG. 8)
Protocol: as §4
(§8) HEK 293 cells were transiently transfected with 3 μg of plasmid containing ZnT-1 (kindly provided by Dr. R. D. Palmiter, Howard Hughes Medical Institute, University of Washington, Seattle, Wash.) or vector alone, using the calcium precipitation method as described [Sekler, I. et al. (1995) J Biol. Chem. 270:11251-6]. Pherochromocytoma PC12 cells were co-transfected with ZnT-1 or EYFP (Clontech) for control, using the Fugene-6 reagent (Roche). Measurements were performed 36-48 hours following transfection.
Cells were superfused with a Ringer's solution containing: 120 mM NaCl, 5 mM KCl, 20 mM glucose, 10 mM Hepes, 0.5 mM MgCl, 1.8 mM CaCl2 at pH 7.4. […]
as §6

LTCC [5] = test: Immunoprecipitation with ZnT-1 antibody and Western blot with LTCC antibody, cardiac tissue; assay type: binding; conditions: mouse cardiac tissue expressing both ZnT-1 and LTCC (FIG. 11)
Protocol: as §2, §3

HEK 293 cells = test: Zinc efflux in HEK 293 cells transfected with ZnT-1; assay type: cell-based, human; conditions: cells transfected with ZnT-1 vs non-transfected (FIG. 3)
Protocol: as §4, §8
Cells were incubated for 30 minutes with 5 μM of the ratiometric dye Fura-2-AM (TEF Labs) in 0.1% BSA-sodium Ringer's solution. Fura-2-AM binds zinc with very high affinity. […] Changes in intracellular cation concentration were monitored by a single cell imaging system, consisting of a Zeiss Axiovert 100, inverted microscope, Polychrome II monochromator (TILL Photonics) and a cooled CCD (PCO). […] The data was analyzed post acquisition, by selecting single cells (30-50) from the field of view and recording their activity.

LTCC [6] = test: LTCC expression by immunoblot, PC12 cells endogenously expressing LTCC; assay type: cell-based; conditions: presence or absence of ZnT-1 (FIG. 7)
Protocol: as §2, §7

c1ccc(CN(CCN(Cc2ccccn2)Cc2ccccn2)Cc2ccccn2)nc1 [TPEN, tetrakis-(2-pyridylmethyl)ethylenediamine]
Fura-2 fluorescence signal (intracellular zinc): lowered the fluorescence signal; also recorded: eliminated

[Zn+2] [Zinc, ZnSO4]
ZnT-1 expression (ZnT-1; listed as Zn^2+): induced by Zn^2+ in a dose-dependent manner | ZnT-1 expression (ZnT-1; listed as Zn^+2): induced by Zn^+2 in a dose-dependent manner | rate of zinc influx (LTCC [1]): reduction of zinc influx

B1: ZnT-1: protein encoded by the gene ZnT-1, originally described as a zinc transporter; GenBank Accession No. U17132; expressed by transfection (protein, UniProt Q9Y6M5 1-507, looked up)
Proton-coupled zinc …: MGCWGRNRGRLLCMLALTFMFMVLEVVVSRVTSSLAMLSDSFHMLSDVLALVVALVAERFARRTHATQKNTFGWIRAEVMGALVNAIFLTGLCFAILLEAIERFIEPHEMQQPLVVLGVGVAGLLVNVLGLCLFHHHSGFSQDSGHGHSHGGHGHGHGLPKGPRVKSTRPGSSDINVAPGEQGPDQEETNTLVANTSNSNGLKLDPADPENPRSGDTVEVQVNGNLVREPDHMELEEDRAGQLNMRGVFLHVLGDALGSVIVVVNALVFYFSWKGCSEGDFCVNPCFPDPCKAFVEIINSTHASVYEAGPCWVLYLDPTLCVVMVCILLYTTYPLLKESALILLQTVPKQIDIRNLIKELRNVEGVEEVHELHVWQLAGSRIIATAHIKCEDPTSYMEVAKTIKDVFHNHGIHATTIQPEFASVGSKSSVVPCELACRTQCALKQCCGTLPQAPSGKDAEKTPAVSISCLELSNNLEKKPRRTKAENIPAVVIEIKNMPNKQPESSL
notes: protein encoded by the gene ZnT-1, originally described as a zinc transporter; expressed by transfection
co-immunoprecipitation of ZnT-1 with LTCC (LTCC [2]): much higher co-immunopercipitation; also recorded: reveals a band | rate of zinc influx (L-type Ca channel (LTCC)): attenuated | zinc influx (LTCC [3]; HEK 293, co-expression of LTCC and ZnT-1 vs LTCC alone and non-transfected control (FIG. 6)): reduction in the zinc influx to levels comparable to control; also recorded: reduction in the cation influx to levels comparable to control | reduction in rate of zinc permeation through LTCC (LTCC [3]; HEK293 co-transfected with LTCC and ZnT-1 vs LTCC alone (FIG. 4c)): 5 fold | LTCC expression level (LTCC [4]): Neither cell type showed changes; also recorded: not changed | rate of Ca influx (L-type Ca channels): inhibits the rate of Ca influx | co-immunoprecipitation of ZnT-1 with LTCC (LTCC [5]): A similar effect; also recorded: reveals a band | zinc efflux (HEK 293 cells): not accelerated | LTCC expression level (LTCC [6]): Neither cell type showed changes; also recorded: not changed; also recorded: without changing LTCC expression
